Source: the domain aggregation screens of Martell et al. (2025)

Assay: soluble fraction after stress (log2 fold change); higher = more stays soluble; pooled small domains, quantitative proteomics
Conditions: stress: 50 degC
Summary of the method: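 Custom libraries of small protein domains were pooled and measured in a high-throughput format, with quantitative proteomics as the read-out. Each library was stressed at 50°C. The value is the log2 fold change in the amount of each protein that stays soluble after stress, used as a measure of aggregation propensity; higher values mean more of the protein stays soluble.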

Sequence | soluble fraction (log2)
HMVAPKTEEQQKMFLESIVTKRQAETLIEKYPNIVQDIIDGTDNVDLANLKGIGEHTYNLIKEKVLSNY | 0.279
HMIDKIRYPELIMKLAHQQGGTIKRRDVEQLLHLQTKQAYRELSKLVDAGELVSVGRGPGAHYEVS | 0.042
HMPALELLVESKKPLLIHGEKIAEDINLFDREKYFIDDELIRIVKEFPSLKIILEHVSSKYGAD | -1.5
HMEELLVAVKADGSIWADGRPITPDGLASFIDSKPADAVLNLAVDKKAPFAAFVKVVDVAKEKKSGRFVIR | 0.0577
HMSVLLKEEGSLQLARHGAAYFIIYSAQEHPNQRRHLKISEEESNRIMEGTPIEEIFLAYSG | -0.291
HMQSHGSRIWTDITGNFTREASFIELAEGKVTLQLTDGRRTIISFEILSKKDQEYVLDIGDS | -2.11
HMQYQIITENGKQYYLYTVQKSEGFYSIGKRFEITNDEIIKANPEAALGLKLGQVLKIPVYK | -0.331
HMRPIWVQLADDFRHRIVSGQWPPGSKIPSVRELAAETGVNPNTVQRALGALDGEGLTATERTAGRFVTT | -0.0768
HMGTRPIQIASFSKEENAKRAVEALAKIGITAQPQKSGSATKAVWGVVANGDADLLAKIKAAGFADAYFL | 0.0667
HMVEMIGLQMVGKSGIASTVLRPSGKVRIDGVVYDAVSEDGFIEKGQAVKVLRYETGQVYVEKL | -0.254
HMGKNYYEILGITKSASEEQVRKAFRGLAMEWHPDRNRSADSEERFKEINEAYQVLIDPKKRQMYDQYGR | 0.388
HMSTSRAEIIAFLKSNPSSEYKHELETKLDEMDWAEAVKGNSEESFLAYKQRQPNGTHNGEADEKLKVLLV | 0.191
HMEQPAPSTTVDILGGGRAALVTANRELGLALADDEIDYLTDSFTQLGRNPVDVELMMFAQA | 0.00743
HMFESQYIGKIATAITDISAFSGRLKIYDENWEARTLGEDAPEIKKGAKVKIVRHDDLTMFVEKK | -0.034
HMKREWKDDDPTVPAGWKVAWTTTSDNRAKIAFMSPDKKIFHSRKSALQHMLAAGTYAQSDIEKMTKGL | -0.112
HMENKVLVITEEEKGKRLDVYLAAALEVSRSYAQQLIQGEDVVVNDKQVKANYRLSEGDVVQVQLD | ≥ 0.62

Sequence | soluble fraction (log2)
HMAVVAPLAGSVARVLVADGDEIEAGQVLLVLEAMKMETEITAPKAGKVGAILVGKGDSVQGGQGLR | -0.051
HMRNQIRAVITPVPNQERYTVEMTIDDDAGNLLTLQMAAPDRQQAAEFAQRFQKHPEALYHAVLSVLL | 0.0702
HMTGDISRALDQLPADMRTVLILYALEKQRYEDIAQITGVSVGTVKSRLNRARQKLAAILANQREQNE | -0.488
HMKELTYSDFRKAYPDIQGNLFGMAERYITALDWTEVAAKVETDEELRKERDIFYLVKTYIRKYVQ | -0.487
HMDEYFNPETVVHYLRELFDTYRENGGNPFEWFHSTFESVNLNPQNYRKDLITTIEKALIEWIEIFEKQ | -0.0143
HMPSPTPEQVLKAFTDAAMQKNTVEELKQAFAKAWKMLEGTPEQHKAQDVYNIRRDELEGAA | -0.173
HMKTVKPSQIPYSEFLKLVETDKINDVSMVGRNIIGHLDDGSKFKTYTPPNDPTLIEKLSSHNIVINAAPE | 0.149
HMIIENIVVEIKGEVYNPGLYILEQGSRINDLIELSGGFTKDANGTDLNLAKVLSDGEVIIVSKKG | -0.2
HMADKGTITNQQEKILKALILFPEGASIEEIQKAADLGIDKRQFQRRLNTLIESGQINRTGKSRGTKYHTI | 0.0555
HMNGVSNETLIQKSALYEELNQPDLALKMINTALKKDSVNIEILHRLVTLLMSQEKNEEAILYNQKIIDH | 0.022
HMGQVSEAGELEVAADRVIAANPEAVTKYKSGNENILQFLVGQMMKETKGAANPQVAAEILRKKIV | 0.254
HMNLGNLLKIYRKNSLLTQQQVADALNINRTTYTYYETGKTEPSIDTLHKLIKIFGITYDDLL | -2.7
HMTGIRVYPNPTSSELRFSVATDAALYDATGARLRVVRGSDMMDIRDLASGTYYVRFADGSTQSVVVT | -0.198
HMEIETPEIRAIHDLLELLANKAKKPEQEQFVQAHPEVQWAKVEANKNGTFAVGKVKAYLKTLQA | -0.308
HMNVSVSITKELQVYINDERISSSALESTLKSKLAGIENPTIILRAEEGVPIEKAVNVMDIANRNRYKIVL | -0.522
